Measured values reported in US20190389914A1 (University of California, published 2019).

Assays:
Assay in all cases: Y2H, beta-gal staining
[1] = molecular target: T1, GAL4 activation domain fusion to HAB1 V393K (Arabidopsis thaliana (Mouse-ear cress), UniProt Q9CAJ0 4-511)
T1 construct: Mutant of the pACT-HAB1 template, which lacks the three N-terminal amino acids of HAB1
T1 sequence: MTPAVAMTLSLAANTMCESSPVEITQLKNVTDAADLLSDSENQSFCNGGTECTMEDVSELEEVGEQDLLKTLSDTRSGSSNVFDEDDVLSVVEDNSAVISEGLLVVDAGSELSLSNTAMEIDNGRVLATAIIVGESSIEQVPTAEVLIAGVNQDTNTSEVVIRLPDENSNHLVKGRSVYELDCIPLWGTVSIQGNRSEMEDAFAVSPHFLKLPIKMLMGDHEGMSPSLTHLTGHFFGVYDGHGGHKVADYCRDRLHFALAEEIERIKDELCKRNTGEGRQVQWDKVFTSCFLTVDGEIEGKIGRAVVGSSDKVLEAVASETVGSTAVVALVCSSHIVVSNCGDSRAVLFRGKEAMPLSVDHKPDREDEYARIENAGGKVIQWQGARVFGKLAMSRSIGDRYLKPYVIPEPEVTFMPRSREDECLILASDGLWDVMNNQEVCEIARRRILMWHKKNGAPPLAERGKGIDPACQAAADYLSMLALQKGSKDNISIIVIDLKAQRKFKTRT

[2] = molecular target: T2, GAL4 activation domain fusion to HAB1 E203T (Arabidopsis thaliana (Mouse-ear cress), UniProt Q9CAJ0 4-511)
T2 construct: Mutant of the pACT-HAB1 template, which lacks the three N-terminal amino acids of HAB1
T2 sequence: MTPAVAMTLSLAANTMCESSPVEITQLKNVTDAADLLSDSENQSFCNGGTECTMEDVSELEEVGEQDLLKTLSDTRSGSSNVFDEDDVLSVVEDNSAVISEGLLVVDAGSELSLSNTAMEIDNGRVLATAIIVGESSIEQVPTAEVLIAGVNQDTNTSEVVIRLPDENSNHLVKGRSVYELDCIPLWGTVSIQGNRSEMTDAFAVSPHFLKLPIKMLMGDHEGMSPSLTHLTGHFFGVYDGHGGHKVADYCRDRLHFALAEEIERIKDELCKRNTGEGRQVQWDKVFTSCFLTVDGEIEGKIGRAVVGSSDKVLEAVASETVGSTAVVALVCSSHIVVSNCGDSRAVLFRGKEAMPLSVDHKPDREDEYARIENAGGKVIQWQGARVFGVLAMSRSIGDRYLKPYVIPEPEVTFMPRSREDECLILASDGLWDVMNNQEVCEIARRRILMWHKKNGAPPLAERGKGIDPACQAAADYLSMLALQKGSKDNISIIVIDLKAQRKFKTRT

[3] = molecular target: T3, GAL4 activation domain fusion to HAB1 E203D (Arabidopsis thaliana (Mouse-ear cress), UniProt Q9CAJ0 4-511)
T3 construct: Mutant of the pACT-HAB1 template, which lacks the three N-terminal amino acids of HAB1
T3 sequence: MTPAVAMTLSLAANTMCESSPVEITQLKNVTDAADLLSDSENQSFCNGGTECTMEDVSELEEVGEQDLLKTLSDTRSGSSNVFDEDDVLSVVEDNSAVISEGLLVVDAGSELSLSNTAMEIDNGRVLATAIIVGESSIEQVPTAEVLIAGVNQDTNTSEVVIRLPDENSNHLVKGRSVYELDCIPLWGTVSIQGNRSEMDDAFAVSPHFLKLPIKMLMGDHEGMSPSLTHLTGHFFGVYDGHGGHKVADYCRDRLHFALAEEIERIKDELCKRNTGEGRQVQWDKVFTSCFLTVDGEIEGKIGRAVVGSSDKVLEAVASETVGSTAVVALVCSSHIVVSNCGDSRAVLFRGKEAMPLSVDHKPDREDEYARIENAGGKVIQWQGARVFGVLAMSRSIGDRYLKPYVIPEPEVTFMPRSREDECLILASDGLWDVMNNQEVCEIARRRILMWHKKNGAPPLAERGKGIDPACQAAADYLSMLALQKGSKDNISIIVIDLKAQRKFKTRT

[4] = molecular target: T4, GAL4 activation domain fusion to HAB1 E203W (Arabidopsis thaliana (Mouse-ear cress), UniProt Q9CAJ0 4-511)
T4 construct: Mutant of the pACT-HAB1 template, which lacks the three N-terminal amino acids of HAB1
T4 sequence: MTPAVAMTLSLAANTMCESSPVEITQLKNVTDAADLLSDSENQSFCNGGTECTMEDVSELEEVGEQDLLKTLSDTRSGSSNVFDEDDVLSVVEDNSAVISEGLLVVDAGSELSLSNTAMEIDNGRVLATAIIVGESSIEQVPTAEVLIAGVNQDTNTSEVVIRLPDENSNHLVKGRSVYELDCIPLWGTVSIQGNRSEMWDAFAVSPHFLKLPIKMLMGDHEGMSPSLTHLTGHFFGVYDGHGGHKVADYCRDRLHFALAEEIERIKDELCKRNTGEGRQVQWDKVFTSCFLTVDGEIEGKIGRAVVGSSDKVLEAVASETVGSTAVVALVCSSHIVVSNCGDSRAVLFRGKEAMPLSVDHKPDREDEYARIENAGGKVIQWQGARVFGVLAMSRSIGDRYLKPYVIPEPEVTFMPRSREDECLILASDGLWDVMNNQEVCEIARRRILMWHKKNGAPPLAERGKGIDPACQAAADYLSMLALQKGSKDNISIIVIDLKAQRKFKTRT

[5] = molecular target: T5, GAL4 activation domain fusion to HAB1 I383G (Arabidopsis thaliana (Mouse-ear cress), UniProt Q9CAJ0 4-511)
T5 construct: Mutant of the pACT-HAB1 template, which lacks the three N-terminal amino acids of HAB1
T5 sequence: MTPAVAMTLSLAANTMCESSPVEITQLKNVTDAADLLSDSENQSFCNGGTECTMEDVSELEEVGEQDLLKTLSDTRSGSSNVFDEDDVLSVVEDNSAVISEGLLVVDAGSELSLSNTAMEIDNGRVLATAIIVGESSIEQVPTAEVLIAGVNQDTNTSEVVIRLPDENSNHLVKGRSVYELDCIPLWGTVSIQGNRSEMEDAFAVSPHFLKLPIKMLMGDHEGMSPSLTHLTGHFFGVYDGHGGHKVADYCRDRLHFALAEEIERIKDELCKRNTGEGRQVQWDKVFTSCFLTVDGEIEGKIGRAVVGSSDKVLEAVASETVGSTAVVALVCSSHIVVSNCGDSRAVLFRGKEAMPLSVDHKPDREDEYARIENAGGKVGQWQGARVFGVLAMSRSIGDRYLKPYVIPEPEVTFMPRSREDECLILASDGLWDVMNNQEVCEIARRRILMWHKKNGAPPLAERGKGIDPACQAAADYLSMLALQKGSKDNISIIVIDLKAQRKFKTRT

Measured: binding result

B1: GAL4 DNA binding domain fusion to PYR1 (pBD-PYR1), wild type (receptor)
chain: MKLLSSIEQACDICRLKKLKCSKEKPKCAKCLKNNWECRYSPKTKRSPLTRAHLTEVESRLERLEQLFLLIFPREDLDMILKMDSLQDIKALLTGLFVQDNVNKDAVTDRLASVETDMPLTLRQHRISATSSSEESSNKGQRQLTVSMPSELTPEERSELKNSIAEFHTYQLDPGSCSSLHAQRIHAPPELVWSIVRRFDKPQTYKHFIKSCSVEQNFEMRVGCTRDVIVISGLPANTSTERLDILDDERRVTGFSIIGGEHRLTNYKSVTTVHRFEKENRIWTVVLESYVVDMPEGNSEDDTRMFADTVVKLNLQKLATVAEAMARNSGDGSGSQVT
notes: Yeast two-hybrid bait expressed in S. cerevisiae; also called WT
no binding (tested: 10 µM ABA): all assays above
